For one molecule, Kd results are on record in publication PMC5137443.

Targets include POT1;TPP1-L23 mutant (Homo sapiens;Homo sapiens, UniProt Q9NUX5;Q96AP0 1-634;3-248, |D62A;G63A;T64A;H65A); POT1;TPP1 (WT) (Homo sapiens;Homo sapiens, UniProt Q9NUX5;Q96AP0 1-634;3-248, |); POT1;TPP1-L45 mutant (Homo sapiens;Homo sapiens, UniProt Q9NUX5;Q96AP0 1-634;3-105+=AAAAA+116-248, |internal_change).
Common to all, as to assay: filter binding
Another series concerns the target T1, POT1 (Homo sapiens, UniProt Q9NUX5 1-634).
T1 sequence: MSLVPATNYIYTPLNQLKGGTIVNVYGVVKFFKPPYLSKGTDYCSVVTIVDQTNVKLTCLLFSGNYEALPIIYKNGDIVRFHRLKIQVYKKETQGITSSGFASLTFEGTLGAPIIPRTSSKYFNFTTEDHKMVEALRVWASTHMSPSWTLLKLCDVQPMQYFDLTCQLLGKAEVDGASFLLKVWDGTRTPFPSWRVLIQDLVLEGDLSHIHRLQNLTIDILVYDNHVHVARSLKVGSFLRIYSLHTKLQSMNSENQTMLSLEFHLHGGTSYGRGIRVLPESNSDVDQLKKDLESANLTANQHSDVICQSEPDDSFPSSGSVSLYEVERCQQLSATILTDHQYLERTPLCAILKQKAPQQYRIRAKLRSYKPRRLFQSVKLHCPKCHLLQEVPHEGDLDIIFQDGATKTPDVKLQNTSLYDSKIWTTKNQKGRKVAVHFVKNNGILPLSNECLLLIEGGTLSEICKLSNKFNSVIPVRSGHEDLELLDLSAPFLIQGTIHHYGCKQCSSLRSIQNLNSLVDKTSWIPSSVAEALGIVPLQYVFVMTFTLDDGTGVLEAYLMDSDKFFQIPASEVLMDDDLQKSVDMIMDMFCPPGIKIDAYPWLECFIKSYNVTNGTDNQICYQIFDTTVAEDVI

B1: hT12wt, d(GGTTAG)2 (ssDNA)
DNA: GGTTAGGGTTAG
For the molecule B1, the dissociation constant (Kd) – broadly, the equilibrium constant for the complex coming apart – in the series with POT1 came out at 0.0382 ± 0.0048 µM; with POT1;TPP1-L23 mutant it was 0.0273 ± 0.0042 µM; with POT1;TPP1 (WT) it was 0.0038 ± 0.0005 µM; in the series with POT1;TPP1-L45 mutant it was 0.0137 ± 0.0055 µM.
